The target in assay [1] is Drosophila melanogaster CNNM CBS-pair domain, GST-tagged (D. melanogaster). Briefly: ITC; VP-ITC, 20 °C, 20 mM Hepes pH 7.5, 100 mM NaCl, 5 mM TCEP; GST-CBS-pairs titrated with PRL; single site-binding model. (In general: ITC needs no label: the signal is the heat of the interaction.)
The target in assay [2] is Naegleria fowleri CNNM CBS-pair domain (N. fowleri). Briefly: ITC. As to conditions: enzyme.

Bounds are passed on as bounds.

Drosophila melanogaster CNNM CBS-pair domain, GST-tagged (D. melanogaster), sequence (A0A0B7P9G0 362-515): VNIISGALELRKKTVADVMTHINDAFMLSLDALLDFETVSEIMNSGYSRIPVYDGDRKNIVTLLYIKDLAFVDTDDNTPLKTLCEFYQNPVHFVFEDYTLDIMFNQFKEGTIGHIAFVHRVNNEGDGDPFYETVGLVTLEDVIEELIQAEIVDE

The substance “Drosophila melanogaster PRL C109D (from UniProt O61722 1-176)” gave a fold decrease of affinity against wild type in assay [1] of less than 2 fold.

Consider “Drosophila melanogaster PRL R143E (from UniProt O61722 1-176) (enzyme)”, for which the fold decrease of affinity against wild type in assay [1] came to 20 fold.

As to Naegleria fowleri PRL, in assay [2], the Ka is 688000 M⁻¹ and the Kd (usually the equilibrium constant for the complex coming apart) came out at 1.5 µM.

Source of the values: PMC10040874.
